# Laboratory results as given in IntAct's records for PubMed 26290419.
# B1: Kinesin-like protein KIF24 (Homo sapiens), Q5T7B8 (parent)
# chain: MASWLYECLCEAELAQYYSHFTALGLQKIDELAKITMKDYSKLGVHDMNDRKRLFQLIKIIKIMQEEDKAVSIPERHLQTSSLRIKSQELRSGPRRQLNFDSPADNKDRNASNDGFEMCSLSDFSANEQKSTYLKVLEHMLPDDSQYHTKTGILNATAGDSYVQTEISTSLFSPNYLSAILGDCDIPIIQRISHVSGYNYGIPHSCIRQNTSEKQNPWTEMEKIRVCVRKRPLGMREVRRGEINIITVEDKETLLVHEKKEAVDLTQYILQHVFYFDEVFGEACTNQDVYMKTTHPLIQHIFNGGNATCFAYGQTGAGKTYTMIGTHENPGLYALAAKDIFRQLEVSQPRKHLFVWISFYEIYCGQLYDLLNRRKRLFAREDSKHMVQIVGLQELQVDSVELLLEVILKGSKERSTGATGVNADSSRSHAVIQIQIKDSAKRTFGRISFIDLAGSERAADARDSDRQTKMEGAEINQSLLALKECIRALDQEHTHTPFRQSKLTQVLKDSFIGNAKTCMIANISPSHVATEHTLNTLRYADRVKELKKGIKCCTSVTSRNRTSGNSSPKRIQSSPGALSEDKCSPKKVKLGFQQSLTVAAPGSTRGKVHPLTSHPPNIPFTSAPKVSGKRGGSRGSPSQEWVIHASPVKGTVRSGHVAKKKPEESAPLCSEKNRMGNKTVLGWESRASGPGEGLVRGKLSTKCKKVQTVQPVQKQLVSRVELSFGNAHHRAEYSQDSQRGTPARPASEAWTNIPPHQKEREEHLRFYHQQFQQPPLLQQKLKYQPLKRSLRQYRPPEGQLTNETPPLFHSYSENHDGAQVEELDDSDFSEDSFSHISSQRATKQRNTLENSEDSFFLHQTWGQGPEKQVAERQQSLFSSPRTGDKKDLTKSWVDSRDPINHRRAALDHSCSPSKGPVDWSRENSTSSGPSPRDSLAEKPYCSQVDFIYRQERGGGSSFDLRKDASQSEVSGENEGNLPSPEEDGFTISLSHVAVPGSPDQRDTVTTPLREVSADGPIQVTSTVKNGHAVPGEDPRGQLGTHAEYASGLMSPLTMSLLENPDNEGSPPSEQLVQDGATHSLVAESTGGPVVSHTVPSGDQEAALPVSSATRHLWLSSSPPDNKPGGDLPALSPSPIRQHPADKLPSREADLGEACQSRETVLFSHEHMGSEQYDADAEETGLDGSWGFPGKPFTTIHMGVPHSGPTLTPRTGSSDVADQLWAQERKHPTRLGWQEFGLSTDPIKLPCNSENVTWLKPRPISRCLARPSSPLVPSCSPKTAGTLRQPTLEQAQQVVIRAHQEQLDEMAELGFKEETLMSQLASNDFEDFVTQLDEIMVLKSKCIQSLRSQLQLYLTCHGPTAAPEGTVPS
# partner: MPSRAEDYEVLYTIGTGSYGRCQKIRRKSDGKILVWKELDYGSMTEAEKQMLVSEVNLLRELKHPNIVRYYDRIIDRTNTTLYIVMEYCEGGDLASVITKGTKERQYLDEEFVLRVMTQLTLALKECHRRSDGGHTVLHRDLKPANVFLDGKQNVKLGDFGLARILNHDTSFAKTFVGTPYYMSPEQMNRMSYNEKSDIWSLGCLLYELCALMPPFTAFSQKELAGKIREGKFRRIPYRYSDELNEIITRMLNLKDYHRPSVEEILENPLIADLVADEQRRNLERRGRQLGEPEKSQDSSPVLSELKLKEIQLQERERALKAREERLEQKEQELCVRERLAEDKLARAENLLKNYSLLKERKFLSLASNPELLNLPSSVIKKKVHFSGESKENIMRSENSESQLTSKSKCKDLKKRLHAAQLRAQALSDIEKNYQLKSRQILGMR
# Variants of: B1
# Conditions: with nek2_human NEK2, P51955
row,Variant,effect of a mutation on the interaction
1,T621A;S622A,decreasing interaction
